Source: patent US20220204575A1, “MODULATING SURVIVAL OF THERAPEUTIC CELLS AND METHODS, CELLS AND NUCLEIC ACIDS RELATED THERETO” (The Regents of the University of California, priority 2019, published 2022)

B1: PUMA: pro-apoptotic PUMA protein, human UniProt Q9BXH1 (protein, UniProt Q9BXH1 1-193, looked up)
Bcl-2-binding component 3, …: MARARQEGSSPEPVEGLARDGPRPFPLGRLVPSAVSCGLCEPGLAAAPAAPTLLPAAYLCAPTAPPAVTAALGGSRWPGGPRSRPRGPRPDGPQPSLSLAEQHLESPVPSAPGALAGGPTQAAPGVRGEEEQWAREIGAQLRRMADDLNAQYERRRQEEQQRHRPSPWRVLYNLIMGLLPLPRGHRAPEMEPN
B2: BAD: pro-apoptotic BH3-only BCL-2 family protein, UniProt Q92934, heterologously expressed in T cells (protein, UniProt Q92934 1-168, looked up)
Bcl2-associated agonist of …: MFQIPEFEPSEQEDSSSAERGLGPSPAGDGPSGSGKHHRQAPGLLWDASHQQEQPTSSSHHGGAGAVEIRSRHSSYPAGTEDDEGMGEEPSPFRGRSRSAPPNLWAAQRYGRELRRMSDEFVDSFKKGLPRPKSAGTATQMRQSSSWTRVFQSWWDRNLGRGSSAPSQ
B3: BIK: pro-apoptotic BIK protein, human UniProt Q13323, SEQ ID NO: 104 (protein)
chain: MSEVRPLSRDILMETLLYEQLLEPPTMEVLGMTDSEEDLDPMEDFDSLECMEGSDALALRLACIGDEMDVSLRAPRLAQLSEVAMHSLGLAFIYDQTEDIRDVLRSFMDGFTTLKENIMRFWRSPNPGSWVSCEQVLLALLLLLALLLPLLSGGLHLLLK

How the values were obtained:
[1] = tested on: human primary CD4 T cells; assay: Anti-Her2 synNotch driving pro-apoptotic BCL-2 family protein X, T cell survival with antigen-expressing target cells; type: cell-based; details: for induced apoptosis of T cells: in the presence of antigen-expressing target cells
Protocol: For example, a circuit was designed, as schematically depicted in FIG. 27, with an anti-Her2 synNotch driving expression of a pro-apoptotic BCL-2 family protein “X”, where X stands for the various pro-apoptotic BCL-2 family members were tested in the depicted circuit. As shown, upon the anti-Her2 scFv portion of the synNotch receptor binding Her2 expressed by a target cell, the transcription factor (TF) portion of the synNotch, containing Gal4-VP64, is released and inducing expression of the pro-apoptotic BCL-2 family protein “X”. The level of induced apoptosis in the presence of cells expressing the target antigen, as compared to control cells not expressing the target antigen, was then assessed.
Results of testing BID, tBID, PUMA, BMF, HRK and BIK as pro-apoptotic BCL-2 family protein “X” in this system are shown in FIG. 28, along with a negative control employing BFP in place of the pro-apoptotic BCL-2 family protein “X”.
Thus, the therapeutic cells encoding the BID circuit were able to survive BID induction.

primary human T cells = assay: Constitutive overexpression of pro-apoptotic BCL-2 family proteins in T cells, FACS at culture day 12; type: cell-based; details: constitutive expression
Protocol: The abilities of several pro-apoptotic proteins (e.g., BIM, truncated Bid (tBID), and BAD) to induce T cell apoptosis when synthetically overexpressed from a constitutive promoter were tested. The tested T cells were also engineered to constitutively overexpress anti-apoptotic BCL-2.
Without being bound by theory, these effects were likely due to leaky expression of BIM, the high effectiveness of BIM in inducing apoptosis, or a combination thereof.

| Molecule | induced apoptosis of T cells [1] | ability to drive T cell death (primary human T cells; in the absence of overexpressed BCL-2) | ability to induce T cell apoptosis / drive T cell death (primary human T cells; with constitutive overexpression of BCL-2, culture day 12) | relative level of induced therapeutic cell killing ([1]; comparison among tBID, PUMA, BMF, HRK and BIK) |
| --- | --- | --- | --- | --- |
| B1 | induce apoptosis of human primary CD4 T cells |  |  |  |
| B2 |  | insufficient to drive T cell death | insufficient to drive T cell death |  |
| B3 | induce apoptosis of human primary CD4 T cells |  |  | lower level of induced therapeutic cell killing |
